{"source": "patent CN110903389A", "about": "(FUZHOU MAIXIN BIOTECHNOLOGY DEV CO LTD, dated 2020)", "binders": {"B1": {"name": "抗GFAP蛋白单克隆抗体(10G1G11H7) (antibody, V domains shown)", "VH": "EVQLQQSGAELVKPGASVKLSCTASGFNIKDTYMHWVKQRPEQGLEWIGRIDPANGKTKYDPKFQGKATITADTSSNTAYLQLSSLTSEDTAVYYCARRGIMTTVPFAYWGQGTLVTVSA", "VL": "DIVMTQAAPSVPVTPGESVSISCRSSKSLLHSNGNTYLYWFLQRPGQSPQLLIYRMSNLTSGVPDRFSGSGSGTAFTLRISRVEAEDVGVYYCMQHLEYPFTFGGGTKLEIK"}}, "molecular_target": "T1, 重组GFAP蛋白 (人GFAP第292位至第432位氨基酸片段 + 组氨酸标签, 大肠杆菌表达) (human, UniProt P14136 292-432)", "T1 construct": "also called 重组GFAP蛋白片段; 免疫原; not shown: Histidine tag from vector pET28a", "T1 sequence (P14136 292-432)": "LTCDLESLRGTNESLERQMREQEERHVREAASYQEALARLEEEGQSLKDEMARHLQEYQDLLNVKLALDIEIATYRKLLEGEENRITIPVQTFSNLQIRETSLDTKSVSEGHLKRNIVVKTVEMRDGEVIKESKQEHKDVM", "test": "Indirect ELISA on coated recombinant GFAP protein. The affinity constant was calculated from the antibody concentration at half of the plateau OD450.", "data": [{"binder": "B1", "values": [{"measurement": "Ka", "result": "6.53e+09", "unit": "M⁻¹"}]}]}
